In paper PMC8225904:

Target: mAb X’ (E262K sequence variant containing mAb X)
Test: ELISA; plates coated with serially diluted mAb, constant amount of C1q added, detected with biotinylated anti-C1q antibody and HRP-streptavidin; relative binding by parallel line analysis against mAb X

Substance: C1q protein (complex)
- relative binding against mAb X: 0.95
